Source: publication PMC8133496 (PLoS Biology, 2021)

Tests used:
Settings in all cases: both partners purified
[1] = molecular target: recombinant SARS-CoV-2 S1 RBD protein (Severe acute respiratory syndrome …, UniProt P0DTC2); assay: BLI
[2] = molecular target: recombinant SARS-CoV-2 S1 protein (SARS-CoV-2, wild type (reference), UniProt P0DTC2); assay: BLI
[3] = molecular target: SARS-CoV-2 spike receptor-binding domain (residues 333 to 530), carboxyl-terminal 8xHis tag (Severe acute respiratory syndrome …, UniProt P0DTC2); assay: crystal structure

B1: PR1077 (antibody, V domains shown)
VH: QVQLVESGGGVVQPGRSLRLSCAASGFTFSYYGMHWVRQAPGKGLEWVAVIWYDGSNRFYADSVKGRFTISRDNSKSTLYLQMNSLRAEDTAVYYCATDPPGLRFRFDYWGQGTLVTVSS
VL: not shown
notes: source: HEK 293F or ExpiCHO, transfected, purified (Protein A)
B1 was tested, and the Kd [1] was 2330 pM and the Kd [2] was 543 pM.

B2: PR953 (antibody, V domains shown)
VH: EVQLQQSGPELVKPGASVKISCKTSGYTFTEYTMHWVKQSHGKSLEWIGGINPNNGDNTYNQKLKGKATLTVHKSSSTAYMELRSLTSEDSAVYYCARDGYPYYYALDYWGQGTSVTVSS
VL: DIVMTQSQKFMSTSVGDRVSVTCKASQNVGTNVAWYQQKPGQSPKPLIYSASSRYSGVPDRFTGSGSGTDFTLTISNVQSEDLAEYFCQQYNNYPWTFGGGTKLEIK
notes: as for B1
For B2, the Kd [1] was < 1 pM.

B3: PR961 single-chain variable fragment (scFv, V domains shown)
VH: QVQLVQSGAEVKKPGASVKLSCKASGYSFTSYWVNWVRQAPGQGLEWIGMIHPSDSETRLNQKFKDRVTITVDKSTSTAYMELSSLRSEDTAVYYCARADGYEWYFDVWGRGTLVTVSS
VL: DIVLTQSPASLAVSPGQRATITCRASESVDSYGNSFMHWYQQKPGQPPKLLIYRASNLESGIPARFSGSGSGTDFTLTINPVEANDVANYYCQQSNEDPWTFGQGTKVEIK
notes: also called PR961 scFv
B3: binds [3].
